Test results: publication PMC9486129, “An evolutionary divergent thermodynamic brake in ZAP-70 fine-tunes the kinetic proofreading in T cells” (The Journal of Biological Chemistry, 2022)

How the values were obtained:
ZAP-70 tSH2 WT (1–256) [1] = assay: stopped-flow fluorescence; pre-steady-state tryptophan fluorescence, 10 °C; 100 nM tSH2 domain mixed with 30 μM ITAM peptide in 20 mM Tris pH 8.0, 150 mM NaCl, 5% glycerol, 5 mM β-mercaptoethanol; 1 s (fast) and 200 s (slow) transients; observed rates from one-site association fit
ZAP-70 tSH2 WT (1–256) [2] = assay: other fluorescence titration; steady-state intrinsic tryptophan fluorescence, 25 °C; 0.5 μM tSH2 domain titrated with ITAM peptide; excitation 295 nm, emission 300-400 nm; Hill equation fit
[3] = target: ZAP-70 tandem SH2 domain R192A (1-256); assay: ITC; Malvern PEAQ-ITC, 20 °C; C-SH2 mutant tSH2 (R192A, printed R190A in the methods) in 20 mM Hepes pH 8.2, 150 mM NaCl, 5 mM β-mercaptoethanol; titrated with 300 μM peptide; one-site binding model; constant printed under the column Kd2
ZAP-70 tSH2 R192A = assay: stopped-flow fluorescence; pre-steady-state tryptophan fluorescence, 10 °C; 100 nM tSH2 domain mixed with 30 μM ITAM peptide in 20 mM Tris pH 8.0, 150 mM NaCl, 5% glycerol, 5 mM β-mercaptoethanol; 1 s (fast) and 200 s (slow) transients; observed rates from one-site association fit
ZAP-70 tSH2 R39A [4] = assay: as above
ZAP-70 tSH2 R43P = assay: as above
ZAP-70 tSH2 F117A = assay: as above
ZAP-70 tSH2 R39A [5] = assay: other fluorescence titration; steady-state intrinsic tryptophan fluorescence, 25 °C; 0.5 μM tSH2 domain titrated with ITAM peptide; excitation 295 nm, emission 300-400 nm; Hill equation fit

| Substance | kobs fast (ZAP-70 tSH2 WT (1–256) [1]) [s⁻¹] | kobs slow (ZAP-70 tSH2 WT (1–256) [1]) [s⁻¹] | Kd1 (ZAP-70 tSH2 WT (1–256) [2]) [nM] | also measured |
| --- | --- | --- | --- | --- |
| doubly phosphorylated ITAM-ζ3 peptide (ITAM-Y2P-ζ3) (from UniProt P20963 131-159) | 21.4 | 0.012 | 6.8 |  |
| doubly-phosphorylated ITAM-ζ1 peptide with E13A |  |  |  | Kd [3]: 9.8 µM |
| single phosphotyrosine ITAM-ζ1 peptide (ITAM-YP-ζ1) (from UniProt P20963 61-89) | 28.6 |  | 3.7 |  |

Continued, in another order:

| kobs fast (ZAP-70 tSH2 WT (1–256) [1]) [s⁻¹] | kobs slow (ZAP-70 tSH2 WT (1–256) [1]) [s⁻¹] | Kd1 (ZAP-70 tSH2 WT (1–256) [2]) [nM] | Substance | also measured |
| --- | --- | --- | --- | --- |
| 23.9 | 0.262 |  | doubly phosphorylated ITAM-ζ1 peptide (ITAM-Y2P-ζ1) (from UniProt P20963 61-89) | kobs slow (ZAP-70 tSH2 R192A): 0.006 s⁻¹; kobs fast (ZAP-70 tSH2 R39A [4]): 24.8 s⁻¹; kobs fast (ZAP-70 tSH2 R43P): 28 s⁻¹; kobs slow (ZAP-70 tSH2 R43P): 2.25 s⁻¹; kobs fast (ZAP-70 tSH2 F117A): 21.8 s⁻¹; kobs slow (ZAP-70 tSH2 F117A): 0.0517 s⁻¹; Kd1 (ZAP-70 tSH2 R39A [5]): 8 nM |
| 24.4 | 0.022 |  | ITAM-Y2P-ζ1 E13A (peptide) |  |
